Drawing on article PMC12314576, “The Actin‐Binding Prolyl‐Isomerase Par17 Sustains Its Substrate Selectivity by Interdomain Allostery” (Proteins, 2025), this text covers kcat/Km for 1 substance.

The subject of the data set is T1, C[C@H](NC(=O)CCC(=O)O)C(=O)N[C@@H](CCCCN)C(=O)N1CCC[C@H]1C(=O)N[C@@H](Cc1ccccc1)C(=O)Nc1ccc([N+](=O)[O-])cc1.
T1 construct: GST-His6 (PreScission site) (N, cleaved yes); made in house; host or cells: E. coli BL21 (DE3) T1r
Kind of data set: Protease-coupled isomerase assay (PPIase assay) with the catalytic domain. It counts as biochemical, human. The settings on record: other: as quoted in running text; pH 6.8; 10.0 °C. How it is done:
To determine the catalytic efficiency and substrate specificity of Par14 and Par17, we performed a protease‐coupled assay. In this assay, the trans form of a para‐nitroaniline (pNA) tagged model substrate is cleaved by chymotrypsin, and the resulting change in absorption at 390 nm due to free pNA is measured. When the model substrate is added to the protease‐containing buffer, all trans‐Xaa‐Pro isomers are immediately cleaved by chymotrypsin. Therefore, the extent of the first signal burst observed in the absorption spectrum correlates with the amount of trans isomers of the model substrate formed during the experimental dead time. […] The newly formed trans‐Xaa substrates are immediately cleaved, and isomerization can thus be monitored over time (Figure 2). Eighteen different substrate peptides with varying amino acids at the Xaa position (Suc‐Ala‐Xaa‐Pro‐Phe‐pNa) were measured to determine the isomerase activity and substrate selectivity of Par14 (Par17Δ1–25), Par17, and the catalytic domain (Par17Δ1–60) (Table S1). […]
We determined the isomerase activity using the PPIase assay described by. […] A baseline was recorded for 5 min (Cary 100Bio UV/Vis spectrophotometer, Varian/Agilent, Santa Clara, US, λ: 390 nm, bandwidth: 1.0 nm, average time between measurements: 0.5 s, temperature: 10°C). […] The solution was mixed by inverting the cuvette three times and the reaction was recorded for 15 min. […]

PPIase domain (Par17Δ1-60) (Homo sapiens), sequence (chain, as listed by the source mutant): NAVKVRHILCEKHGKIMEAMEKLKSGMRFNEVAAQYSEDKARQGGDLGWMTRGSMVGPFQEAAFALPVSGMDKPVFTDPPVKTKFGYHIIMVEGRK

As a reminder, the kcat/Km is the second-order rate constant that governs catalysis at low substrate concentration. For “PPIase domain (Par17Δ1-60) (Homo sapiens)”, the kcat/Km stood at 3700 M⁻¹ s⁻¹.
